Test [1] concerns the target IL3RA-PK (CD123 tagged with ProLink) in HEK293 IL3RA-PK/CSF2RB-EA cells (UniProt P26951).
Test [2] has as its target endogenous CD123 on human leukaemia cells (OCI-AML5, TF-1) (human) (UniProt P26951). Kind of test: MSD cell binding assay on OCI-AML5 cells (endogenous CD123).
Test [3] has as its target human CD123 SP1 ECD displayed on pDisplay-transfected cells (human) (UniProt P26951). Kind of test: MSD-CAT, hCD123 cells, assay-2.
The target of test [4] is cyno CD123 ECD displayed on pDisplay-transfected cells (cynomolgus monkey). Kind of test: MSD-CAT, cynoCD123 cells, assay-2.
Chain of cyno CD123 ECD displayed on pDisplay-transfected cells (cynomolgus monkey) (chain, as listed by the source): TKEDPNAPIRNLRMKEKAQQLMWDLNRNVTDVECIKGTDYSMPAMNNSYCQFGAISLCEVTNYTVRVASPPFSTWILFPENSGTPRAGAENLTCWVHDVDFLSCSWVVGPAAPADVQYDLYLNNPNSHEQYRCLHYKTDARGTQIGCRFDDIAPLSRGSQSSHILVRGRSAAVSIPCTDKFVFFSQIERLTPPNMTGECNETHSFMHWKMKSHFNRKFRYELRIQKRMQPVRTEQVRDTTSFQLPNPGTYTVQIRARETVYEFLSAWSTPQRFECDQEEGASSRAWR
For test [5], the target named is IL3RA-PK (CD123 tagged with ProLink) in HEK293 IL3RA-PK/CSF2RB-EA cells (UniProt P26951). The source holds these as a separate data set.

Where two headings read alike, the source gives them in different places.

Chain of human CD123 SP1 ECD displayed on pDisplay-transfected cells (human) (P26951 20-305): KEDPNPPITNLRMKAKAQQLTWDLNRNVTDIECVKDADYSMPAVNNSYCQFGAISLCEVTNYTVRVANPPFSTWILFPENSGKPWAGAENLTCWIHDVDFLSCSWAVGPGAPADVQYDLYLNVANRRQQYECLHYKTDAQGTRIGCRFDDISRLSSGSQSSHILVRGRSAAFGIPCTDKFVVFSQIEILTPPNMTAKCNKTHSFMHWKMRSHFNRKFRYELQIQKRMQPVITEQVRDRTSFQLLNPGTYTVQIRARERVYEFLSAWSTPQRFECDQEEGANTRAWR
Chain of endogenous CD123 on human leukaemia cells (OCI-AML5, TF-1) (human) (P26951 19-378): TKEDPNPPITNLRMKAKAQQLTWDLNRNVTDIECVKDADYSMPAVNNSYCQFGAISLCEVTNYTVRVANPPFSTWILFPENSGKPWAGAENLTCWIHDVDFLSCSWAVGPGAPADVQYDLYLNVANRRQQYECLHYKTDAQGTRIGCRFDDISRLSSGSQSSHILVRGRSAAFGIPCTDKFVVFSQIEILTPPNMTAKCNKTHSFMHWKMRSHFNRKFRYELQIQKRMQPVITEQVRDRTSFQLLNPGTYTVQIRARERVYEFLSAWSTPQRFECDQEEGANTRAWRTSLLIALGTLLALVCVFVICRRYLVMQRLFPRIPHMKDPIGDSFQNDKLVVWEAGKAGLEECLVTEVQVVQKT

B1: 7G3 (antibody, from another filing, V domains shown)
VH: EVQLQQSGPELVKPGASVKMSCKASGYTFTDYYMKWVKQSHGKSLEWIGDIIPSNGATFYNQKFKGKATLTVDRSSSTAYMHLNSLTSEDSAVYYCTRSHLLRASWFAYWGQGTLVTVSA
VL: DFVMTQSPSSLTVTAGEKVTMSCKSSQSLLNSGNQKNYLTWYLQKPGQPPKLLIYWASTRESGVPDRFTGSGSGTDFTLTISSVQAEDLAVYYCQNDYSYPYTFGGGTKLEIKR
One may read the EC50 (read off the curve) as the concentration giving half of the maximal effect. A high value points to a need for much substance. Usually Kd stands for the free concentration of one partner at which half of the binding sites on the other are occupied at equilibrium, for simple one-to-one binding. Take B1: the IC50 (read off the curve): IL-3-induced CD123/CD131 heteromerization (RLU) is 0.05 µg/mL in test [1] and 0.2 µg/mL in test [5]. This molecule also displayed an EC50 (read off the curve) in test [2] of 7 µg/mL. For the same molecule, the Kd in test [3] was 0.154 nM; in test [4], 0.057 nM.
